Earlier results in paper PMC1074345.

Target: Angiotensin II AngII (Homo sapiens) (UniProt P01019)
Experiment: radioligand

UniProt P01019, sequence (P01019 whole entry, looked up): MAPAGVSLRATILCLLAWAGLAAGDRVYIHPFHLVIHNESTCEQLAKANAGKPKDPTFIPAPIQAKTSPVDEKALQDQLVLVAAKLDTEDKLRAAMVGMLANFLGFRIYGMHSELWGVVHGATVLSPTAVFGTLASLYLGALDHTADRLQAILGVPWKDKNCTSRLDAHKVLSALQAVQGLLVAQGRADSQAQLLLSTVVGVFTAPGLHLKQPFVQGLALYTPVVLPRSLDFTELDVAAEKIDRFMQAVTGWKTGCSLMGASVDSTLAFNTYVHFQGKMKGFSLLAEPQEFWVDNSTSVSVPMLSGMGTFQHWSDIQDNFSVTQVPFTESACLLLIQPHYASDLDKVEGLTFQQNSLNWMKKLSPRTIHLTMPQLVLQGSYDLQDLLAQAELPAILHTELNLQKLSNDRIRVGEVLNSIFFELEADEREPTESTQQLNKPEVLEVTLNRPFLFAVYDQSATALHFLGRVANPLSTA

Kd [pM] | Substance
170 | AT2 receptor (from UniProt P50052)
360 | AT1 receptor (from UniProt P30556)
